# Reference: patent US20100227824A1 (SYMTHERA CANADA, published 2010)
# T1: GRO-β (CXCL2) (UniProt P19875 35-107)
# T1 construct: Bought chemokine
# T1 sequence (looked up): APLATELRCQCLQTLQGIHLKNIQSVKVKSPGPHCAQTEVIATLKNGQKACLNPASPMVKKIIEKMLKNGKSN
# T2: IL-8 (CXCL8) (UniProt P10145 28-99, limits assumed)
# T2 construct: also called IL-8(72aa); IL-8(77aa)
# T2 sequence (looked up): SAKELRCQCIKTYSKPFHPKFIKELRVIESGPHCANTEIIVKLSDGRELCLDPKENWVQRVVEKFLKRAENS
# T3: Mig (CXCL9) (UniProt Q07325 23-125)
# T3 construct: Bought chemokine
# T3 sequence (looked up): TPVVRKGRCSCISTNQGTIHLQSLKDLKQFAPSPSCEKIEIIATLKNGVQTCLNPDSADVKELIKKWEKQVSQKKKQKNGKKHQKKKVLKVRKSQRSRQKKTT
# T4: IP-10 (CXCL10) (UniProt P02778 22-98)
# T4 construct: Bought chemokine
# T4 sequence (looked up): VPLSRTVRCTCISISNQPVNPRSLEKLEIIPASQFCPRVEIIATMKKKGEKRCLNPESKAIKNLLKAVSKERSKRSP
# T5: I-TAC (CXCL11) (UniProt O14625 22-94)
# T5 construct: Bought chemokine; also called I-TACK
# T5 sequence (looked up): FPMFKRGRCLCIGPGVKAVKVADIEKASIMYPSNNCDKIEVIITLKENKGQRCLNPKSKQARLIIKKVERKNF
# T6: I-309 (CCL1) (UniProt P22362 23-96, limits assumed)
# T6 construct: Bought chemokine
# T6 sequence (looked up): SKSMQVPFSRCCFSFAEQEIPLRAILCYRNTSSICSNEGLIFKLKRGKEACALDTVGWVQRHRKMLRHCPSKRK
# T7: MCP-2 (CCL8) (UniProt P80075 24-99)
# T7 construct: Bought chemokine
# T7 sequence (looked up): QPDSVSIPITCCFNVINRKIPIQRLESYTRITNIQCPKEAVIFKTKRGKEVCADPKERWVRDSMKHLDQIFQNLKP
# T8: RANTES (CCL5) (UniProt P13501 24-91)
# T8 construct: Bought chemokine
# T8 sequence (looked up): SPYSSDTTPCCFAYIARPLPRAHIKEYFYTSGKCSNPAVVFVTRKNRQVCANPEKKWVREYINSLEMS
# T9: Eotaxin 2 (CCL24) (UniProt O00175 27-104, limits assumed)
# T9 construct: Bought chemokine
# T9 sequence (looked up): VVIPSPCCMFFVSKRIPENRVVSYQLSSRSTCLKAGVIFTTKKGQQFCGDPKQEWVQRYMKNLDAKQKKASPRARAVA
# T10: Eotaxin 3 (CCL26) (UniProt Q9Y258 24-94)
# T10 construct: Bought chemokine
# T10 sequence (looked up): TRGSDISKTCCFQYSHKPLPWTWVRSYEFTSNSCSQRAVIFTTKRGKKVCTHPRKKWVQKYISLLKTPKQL
# T11: MDC(69aa) (CCL22) (UniProt O00626 25-93)
# T11 construct: Bought chemokine
# T11 sequence (looked up): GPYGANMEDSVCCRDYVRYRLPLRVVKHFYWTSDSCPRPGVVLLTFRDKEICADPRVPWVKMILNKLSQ
# T12: BCA-1 (CXCL13) (UniProt O43927 23-109)
# T12 construct: Bought chemokine
# T12 sequence (looked up): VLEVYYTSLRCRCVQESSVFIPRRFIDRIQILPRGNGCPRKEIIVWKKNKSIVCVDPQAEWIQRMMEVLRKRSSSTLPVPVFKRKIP
# T13: Exodus-2 (CCL21) (UniProt O00585 24-134)
# T13 construct: Bought chemokine
# T13 sequence (looked up): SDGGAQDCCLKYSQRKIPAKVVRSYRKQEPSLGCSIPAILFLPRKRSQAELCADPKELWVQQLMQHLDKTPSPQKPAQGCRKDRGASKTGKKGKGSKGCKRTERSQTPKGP
# T14: TECK (CCL25) (UniProt O15444 24-150)
# T14 construct: Bought chemokine
# T14 sequence (looked up): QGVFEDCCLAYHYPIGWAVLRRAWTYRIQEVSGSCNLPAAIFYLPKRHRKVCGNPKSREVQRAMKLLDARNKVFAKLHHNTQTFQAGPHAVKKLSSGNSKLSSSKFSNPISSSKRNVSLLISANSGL
# T15: Lymphotactin (XCL-1) (UniProt P47992 23-114, limits assumed)
# T15 construct: Bought chemokine
# T15 sequence (looked up): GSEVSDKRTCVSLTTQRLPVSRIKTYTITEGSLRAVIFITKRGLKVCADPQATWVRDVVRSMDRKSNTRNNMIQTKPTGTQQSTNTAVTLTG
# Molecular target: T1, GRO-β (CXCL2)
# Assay: micro-array, phage-presented peptide on printed CK
# Procedure: (§1) (1) Printing: Chemokine (CK) solution (in water) was serially diluted with Print Reagent (GenTel BioSurfaces USA) to final concentrations of 50 μg and 25 μg/ml. BSA/BSA-Biotin control solutions (in water) were diluted with Print Reagent to 100 μg/ml. Amplified stock of M13 phage control (M13KEgIII Cloning Vector, New England Biolabs, Cat.No.E8101S) was stored in Tris Buffered Saline (TBS; pH7.5, 4° C.) and diluted with Print Reagent to the working titre (10^8 pfu/μl). An automated spotting robot (16 pin print tool, 0.4mm head; BioRobotics, UK) was used to print the CK/BSA control/M13 control, 5 repeats per sample (CK 25 μg/ml and 50 μg/ml; BSA 100 μg/ml; M13 20 μl), on PATH Protein Microarray Slides (GenTel, Prod.No.2-1005/-1025) at […], and 50-70% relative humidity. Printed micro-array slides were stored at Room Temperature (RT) or 4° C. for at least 24 h before use.
# (§2) (2) Blocking: Block Buffer (500 μl/partition; PATHblock, GenTel, Prod.No.2-1014) was applied to the slide for 1 hour at room temp (RT). After removal of Block Buffer, the slide was air dried for 25 minutes;
# (§3) (11) Analysis: Quantitative analysis of micro-array was performed by the SpotReader program of Niles Scientific (USA) and presented as Relative Fluorescence (RF) as a function of CK concentration. Micro-array readout (Cy3 fluorescence) was quantified to determine the relative binding affinities of a CBP for the CKs and by inference, the specificity of the CBP for binding to a CK.
Binder,Relative Fluorescence Units (RFU),binding result
WVFGHGMCK [Phage-Presented Peptide 25 (Ph-p25)],> 15000,–
HHTCSLHFP [Phage-Presented Peptide 16 (Ph-p16)],–,binds
DYDY [Phage-Presented Peptide 32 (Ph-p32)],> 10000,–

# Molecular target: T2, IL-8 (CXCL8)
# Assay: micro-array, phage-presented peptide on printed CK
# Procedure: as §1, §2, §3
row,Binder,Relative Fluorescence Units (RFU)
1,WVFGHGMCK [Phage-Presented Peptide 25 (Ph-p25)],> 15000
2,DYDY [Phage-Presented Peptide 32 (Ph-p32)],> 10000

# Molecular target: T3, Mig (CXCL9)
# Assay: micro-array, phage-presented peptide on printed CK
# Procedure: as §1, §2, §3
Binder,Relative Fluorescence Units (RFU),binding result
WVFGHGMCK [Phage-Presented Peptide 25 (Ph-p25)],> 15000,–
HHTCSLHFP [Phage-Presented Peptide 16 (Ph-p16)],–,binds
DYDY [Phage-Presented Peptide 32 (Ph-p32)],> 10000,–

# Molecular target: T4, IP-10 (CXCL10)
# Assay: micro-array, phage-presented peptide on printed CK
# Procedure: as §1, §2, §3
row,Binder,Relative Fluorescence Units (RFU)
1,WVFGHGMCK [Phage-Presented Peptide 25 (Ph-p25)],> 15000

# Molecular target: T5, I-TAC (CXCL11)
# Assay: micro-array, phage-presented peptide on printed CK
# Procedure: as §1, §2, §3
Binder,binding result,Relative Fluorescence Units (RFU)
HHTCSLHFP [Phage-Presented Peptide 16 (Ph-p16)],binds,–
DYDY [Phage-Presented Peptide 32 (Ph-p32)],–,> 10000

# Molecular target: T6, I-309 (CCL1)
# Assay: micro-array, phage-presented peptide on printed CK
# Procedure: as §1, §2, §3
Binder,binding result,Relative Fluorescence Units (RFU)
HHTCSLHFP [Phage-Presented Peptide 16 (Ph-p16)],binds,–
DYDY [Phage-Presented Peptide 32 (Ph-p32)],–,> 10000

# Molecular target: T16, MCP-1 (CCL2) (UniProt P13500 24-99)
# T16 construct: Bought chemokine
# Assay: micro-array, phage-presented peptide on printed CK
# Procedure: as §1, §2, §3
# T16 sequence (P13500 24-99 limits assumed): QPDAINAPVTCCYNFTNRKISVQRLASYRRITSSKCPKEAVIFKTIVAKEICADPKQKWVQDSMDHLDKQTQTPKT
Binder,Relative Fluorescence Units (RFU),binding result
WVFGHGMCK [Phage-Presented Peptide 25 (Ph-p25)],> 15000,–
HHTCSLHFP [Phage-Presented Peptide 16 (Ph-p16)],–,binds

# Molecular target: T7, MCP-2 (CCL8)
# Assay: micro-array, phage-presented peptide on printed CK
# Procedure: as §1, §2, §3
Binder,Relative Fluorescence Units (RFU),binding result
WVFGHGMCK [Phage-Presented Peptide 25 (Ph-p25)],> 15000,–
HHTCSLHFP [Phage-Presented Peptide 16 (Ph-p16)],–,binds
DYDY [Phage-Presented Peptide 32 (Ph-p32)],> 10000,–

# Molecular target: T17, MCP-4 (CCL13) (UniProt Q99616 24-98)
# T17 construct: Bought chemokine
# Assay: micro-array, phage-presented peptide on printed CK
# Procedure: as §1, §2, §3
# T17 sequence (Q99616 24-98 limits assumed): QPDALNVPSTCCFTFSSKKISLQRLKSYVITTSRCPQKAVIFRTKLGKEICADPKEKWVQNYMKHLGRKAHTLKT
row,Binder,Relative Fluorescence Units (RFU)
1,WVFGHGMCK [Phage-Presented Peptide 25 (Ph-p25)],> 15000
2,HHTCSLHFP [Phage-Presented Peptide 16 (Ph-p16)],> 15000
3,DYDY [Phage-Presented Peptide 32 (Ph-p32)],> 10000

# Molecular target: T8, RANTES (CCL5)
# Assay: micro-array, phage-presented peptide on printed CK
# Procedure: as §1, §2, §3
Binder,binding result,Relative Fluorescence Units (RFU)
WVFGHGMCK [Phage-Presented Peptide 25 (Ph-p25)],binds,–
HHTCSLHFP [Phage-Presented Peptide 16 (Ph-p16)],–,> 15000
DYDY [Phage-Presented Peptide 32 (Ph-p32)],–,> 10000

# Molecular target: T18, Eotaxin (CCL11) (UniProt P51671 24-97)
# T18 construct: Bought chemokine
# Assay: micro-array, phage-presented peptide on printed CK
# Procedure: as §1, §2, §3
# T18 sequence (P51671 24-97 limits assumed): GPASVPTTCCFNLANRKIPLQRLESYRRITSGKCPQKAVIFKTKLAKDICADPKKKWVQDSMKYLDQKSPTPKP
Binder,binding result,Relative Fluorescence Units (RFU)
WVFGHGMCK [Phage-Presented Peptide 25 (Ph-p25)],binds,–
HHTCSLHFP [Phage-Presented Peptide 16 (Ph-p16)],binds,–
DYDY [Phage-Presented Peptide 32 (Ph-p32)],–,> 10000

# Molecular target: T9, Eotaxin 2 (CCL24)
# Assay: micro-array, phage-presented peptide on printed CK
# Procedure: as §1, §2, §3
Binder,binding result,Relative Fluorescence Units (RFU)
HHTCSLHFP [Phage-Presented Peptide 16 (Ph-p16)],binds,–
DYDY [Phage-Presented Peptide 32 (Ph-p32)],–,> 10000

# Molecular target: T10, Eotaxin 3 (CCL26)
# Assay: micro-array, phage-presented peptide on printed CK
# Procedure: as §1, §2, §3
Binder,binding result,Relative Fluorescence Units (RFU)
WVFGHGMCK [Phage-Presented Peptide 25 (Ph-p25)],binds,–
HHTCSLHFP [Phage-Presented Peptide 16 (Ph-p16)],binds,–
DYDY [Phage-Presented Peptide 32 (Ph-p32)],–,> 10000

# Molecular target: T11, MDC(69aa) (CCL22)
# Assay: micro-array, phage-presented peptide on printed CK
# Procedure: as §1, §2, §3
row,Binder,binding result
1,HHTCSLHFP [Phage-Presented Peptide 16 (Ph-p16)],binds

# Molecular target: T19, SDF-1α (CXCL12) (UniProt P48061-2 22-89)
# T19 construct: Alpha isoform of CXCL12; also called SDFα
# Assay: micro-array, phage-presented peptide on printed CK
# Procedure: as §1, §2, §3
# T19 sequence (P48061 22-89 limits assumed): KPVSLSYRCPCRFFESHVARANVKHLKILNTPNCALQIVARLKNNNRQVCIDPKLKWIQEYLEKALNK
row,Binder,binding result
1,DYDY [Phage-Presented Peptide 32 (Ph-p32)],binds

# Molecular target: T20, SDF-1β (CXCL12) (UniProt P48061 22-93)
# T20 construct: Beta isoform of CXCL12; also called SDFβ
# Assay: micro-array, phage-presented peptide on printed CK
# Procedure: as §1, §2, §3
# T20 sequence (P48061 22-93 limits assumed): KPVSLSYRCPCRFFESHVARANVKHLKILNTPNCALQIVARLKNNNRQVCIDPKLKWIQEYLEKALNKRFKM
row,Binder,binding result
1,DYDY [Phage-Presented Peptide 32 (Ph-p32)],binds

# Molecular target: T12, BCA-1 (CXCL13)
# Assay: micro-array, phage-presented peptide on printed CK
# Procedure: as §1, §2, §3
row,Binder,binding result
1,WVFGHGMCK [Phage-Presented Peptide 25 (Ph-p25)],binds
2,HHTCSLHFP [Phage-Presented Peptide 16 (Ph-p16)],binds
3,DYDY [Phage-Presented Peptide 32 (Ph-p32)],binds

# Molecular target: T13, Exodus-2 (CCL21)
# Assay: micro-array, phage-presented peptide on printed CK
# Procedure: as §1, §2, §3
row,Binder,binding result
1,WVFGHGMCK [Phage-Presented Peptide 25 (Ph-p25)],binds
2,DYDY [Phage-Presented Peptide 32 (Ph-p32)],binds

# Molecular target: T14, TECK (CCL25)
# Assay: micro-array, phage-presented peptide on printed CK
# Procedure: as §1, §2, §3
row,Binder,binding result
1,WVFGHGMCK [Phage-Presented Peptide 25 (Ph-p25)],binds
2,HHTCSLHFP [Phage-Presented Peptide 16 (Ph-p16)],binds
3,DYDY [Phage-Presented Peptide 32 (Ph-p32)],binds

# Molecular target: T15, Lymphotactin (XCL-1)
# Assay: micro-array, phage-presented peptide on printed CK
# Procedure: as §1, §2, §3
row,Binder,binding result
1,WVFGHGMCK [Phage-Presented Peptide 25 (Ph-p25)],binds
2,HHTCSLHFP [Phage-Presented Peptide 16 (Ph-p16)],binds
3,DYDY [Phage-Presented Peptide 32 (Ph-p32)],binds
